Experimental findings from the DeepSol protein solubility set are described below.

This data set in a line: soluble on expression in E. coli; label from the status in PepcDB or PDB records.
With “MAMSQQDLPTLFYSGKSNSAVPIISESELQTITAEPWLEISKKGLQLEGLNFDRQGQLFLLDVFEGNIFKINPETKEIKRPFVSHKANPAAIKIHKDGRLFVCYLGDFKSTGGIFAATENGDNLQDIIEDLSTAYCIDDMVFDSKGGFYFTDFRGYSTNPLGGVYYVSPDFRTVTPIIQNISVANGIALSTDEKVLWVTETTANRLHRIALEDDGVTIQPFGATIPYYFTGHEGPDSCCIDSDDNLYVAMYGQGRVLVFNKRGYPIGQILIPGRDEGHMLRSTHPQFIPGTNQLIICSNDIEMGGGSMLYTVNGFAKGHQSFQFQLEHHHHHH”, the “soluble on expression in E. coli” value is “soluble”.
Next, “MRLRKKPWARPALEACSFFVINPTEYKGKWREVFGNSNEIWLELGCGKGGFISKLASTNPDKNFIAVDIKDEVLALAMKKIENEYALIGAETKNIRLMAHEIMLIHRMLDENDQIGRIFINFCNPWPKNRHKARRLTHPNQLNQYRTFLAPNGQIWFKTDDTMLFQDSIKYFEQCNFNIVYLTEDLHASGFEGNIETEHERMFLEQGCKIKFLIAEKK”: “soluble”; “AHHHHHHGSYLSIGTLLHRPLSSNLCIAYEIATPAIYLSPGYFTTFPATYDEILLIVSTSLAFPYVWV”: “soluble”.
In the case of “MSLTTVMSGVTTLMRAPIGSIRESEGGRDFIRNVFEESVQIMRVLGAPVKENITEEHMKTMDKISYNMKSSMQRDMEKGSSVEGTHLQGYLLDVAKQFSIEAPLLGAVYQNLKVYEEMTLNRSAIELDEGHHHHHH”, the “soluble on expression in E. coli” value was “soluble”.
Under “MRGSHHHHHHTDPALRALVSSNVTMQFGSKPLFENISVKFGGGNRYGLIGANGSGKSTFMKILGGDLEPTLGNVSLDPNERIGKLRQDQFAFEEFTVLDTVIMGHKELWEVKQERDRIYALPEMSEEDGYKVADLEVKYGEMDGYSAEARAGELLLGVGIPVEQHYGPMSEVAPGWKLRVLLAQALFADPDILLLDEPTNNLDIDTIRWLEQVLNERDSTMIIISHDRHFLNMVCTHMADLDYGELRVYPGNYDEYMTAATQARERLLADNAKKKAQIAELQSFVSRFSANASKSRQATSRARQIDKIKLEEVKASSRQNPFIRFEQDKKLFRNALEVEGLTKGFDNGPLFKNLNLLLEVGEKLAVLGTNGVGKSTLLKTLVGDLQPDSGTVKWSENARIGYYAQDHEYEFENDLTVFEWMSQWKQEGDDEQAVRSILGRLLFSQDDIKKPAKVLSGGEKGRMLFGKLMMQKPNILIMDEPTNHLDMESIESLNMALELYQGTLIFVSHDREFVSSLATRILEITPERVIDFSGNYEDYLRSKGIEGLCGR” stands “soluble”.
Under “MGSDKIHHHHHHMSLQISLVNNISQIGSQAWHALFGSEHPFTRYEYLLALESSGACSAQTGWQPRHLIVIEKAAVTENPHSAAAKTDNILALMPLYEKHHSYGEYVFDWAWAEAYERHGLAYYPKLLCAVPFTPVTGTRLAMDSRLDVGQQDAVWTAVVDFLQQQIMTQGYSSWHYLFTNATQSAVLAQAHLTPPSQSQSNQAQRNQTQALQPQANSQASAIKGQPIARLGTQFHWFNRGYRQFDDFLQVMTSRKRKNIQKERAAISKFELSFEFIHGDNITSSQWRSFSLCYQQTYLKRSGHTGYLNSEFFQAIGTSMADAIRLLRVSDKAGKDIAYALYFASDSRLYGRYWGAFEDIPGLHFEACYYQGIEYAIAQGLSCFDAGAQGEHKVLRGFEPIETHSFHAIAHEGFKGAIEDFCQQERRNMQIYMAEQAKNLPYKNSQ” stands “not soluble”; under “MGSDKIHHHHHHMDLQYLDNFLALAHYRSFSAAADACYISQSSFSKRIMRLENNLGVTLFERSTRQVSLTEYGQIYLKYAQQIKTLSRQATDEINRRHAEDEGIVIGGIPSISEYGILDLISGFIKTTHIHCQVKSAPSEDLEPMLLNQTLDFAFIKEVHHTNLFYQLPYAEDHLVAVLPANHPLANLSEIKLQQLANEDFIFQPVNSRPYELCMMICKQNGFTPNVIYADRIIENILNFVKKGLGVSLLMEKLVPKDSELICLPIHPAVVADINLCYLKKEPLSQYGYAFLNYFSHQNNAR”, “not soluble”; under “MDEQISKSQKKRDAHYLQDIGIKFIDLSASKLDSLPLPDNLRQAIVDARSIKSHGAKRRQAQLIGKLMRAADFEAILAAYEKILEEESSVTASFHEIELWRDRLLQDGKDALTEFIDAYQPEDVQQLRQLIKKALDDQMKEKNTGAAKALFRYLRSLIK”, “not soluble”.
On to “MEECAVSGGFDVSPQELRTFAGKLDVHRSTAEEIAGLVTEADVPERSWGVVGLVVKSECTRMLGDLNELFTALQEGLRSGSEKFTGAAQDYTDQEEAVKELLSGLQVRLDERQGGR”, for which the “soluble on expression in E. coli” value was “not soluble”.
Under “MFLVTGATGDIGRRVIRLLREHNHSVRGFARLTSRYGELEHRGANIFIGDLRREQDIEKACQGVQYIISAHGSDNDALTLDYRANIALIDQAKANGVQHFVFISVLGAERGYEDAPVFKAKRAVENYLAASGLNYTILRPAGLASNLLPLAERFRETGLYLLIGDPKNRTSIVSTDDLARIVVDSVTVPEARNQIFSVGGPEILLREDIPQIFSHIFKKEPIVVNSPLLVIDGLRGVLGLINPEAQQALGTFRTLLSNEFFCRKDEIAKLEQTFNFPLETLESFLRRYLAVLEHHHHHH” stands “not soluble”.
Next, “MVFFNRNKIMNKDSTQTWGLKRDITPCFGARLVQEGHRLHFLADRAGFTGSFSEVQTLQLDEAFPHFVAHLELMLLSCELNPRYAHCVTLYRNGLTGEADTLGSHGYVYIAILNRHGFNRHLRVILEHHHHHH”: “not soluble”.
Next, “MDWYEPGEDTYTLMDALEREGLEMKIVLDLGTSTGVITEQLRKRNTVVSTDLNIRALESHRGGNLVRADLLCSINQESVDVVVFNPPYVPDTDDPIIGGGYLGREVIDRFVDAVTVGMLYLLVIEANRPKEVLARLEERGYGTRILKVRKILGETVYIIKGEKS”: “not soluble”.
For “MSLIPVVLSGGAGTRLWPVSREGQPKPFMRLPDGQTLLGKTYRRAAGLLAGHGEIVTVTNREHYFQSKDQFHAARLGRHRGHFILEPTGRNTAPAIAVAALGLQAEHGDAAVLVVMPADHLIRNEEAFREAVGHAARLAVAGHLVTFGVVPDAAETGFGYIELGDRLDEQGAAKVRRFVEKPDEETRRRYVESGGFLWNSGMFCFTASTLVDELAQHAPALLEQARACLAASAAVKMADGIQHELAGEGFAALPDISIDYALMERSARVAVVPAAFDWSDIGSWGAMSALLDADAEGNRGSGDTLFVDTRNTFVQSDGRLVATVGVDDLVVVDTSDALLIARADRVQEVRRVVQRLKDEREGHHHHHH”, the “soluble on expression in E. coli” value was “soluble”.
As for “MFTQVKPYLSLPGFSCVLVNAGIVPPDLNQNFRVAFFNEKKSLNFYVLEKLFLNAEVKLLKPQKETEETFDFIISEIPFSHAFEEERKGLSNSIRNSLKEKGVLFIEYDSKPGSTPKEEFIRFIRLFLKKVESEQVKTDLEVILSRPSYFWARNNETRLYFLEKARRFNDDFVKREITNENYRIFSHDEVHELLKDCMLSFAGRANLEMNDPEIVLFPSHLATLARCGKNNLCKEAVIDFVLDTKQRRDIYAKFPEVDQEKAIESVADKFFLIPRQSPKNLRREVLLPGGHKLSLSEPVYDFFFVNSEEPRRLSEHPLYEKSKKTAWKAFYRVLSTGEFILCVNDDLLEDAKDELPESFELTPPNDEILKVSFENLEDTYLVSNATKGPAVHLNTLEVILLWFASEKGKTKAKEEAVKFLKSREEFIKLGTNIVKAREVKEEDINKTAEKLFKGRKAFNLNRLKIIRER”, the “soluble on expression in E. coli” value is on record as “not soluble”.
Under “MKNMNKYENCLLCPRKCGINRSTGQTGVCGVSSEIKVARAALHYWEEPCISGKRGSGAVFFSGCSLHCVFCQNREISDGKAGKVISKERLSDIFMELADKGANNINLVTPGQYIPDIVWAVNDAKSRGMKLPIIYNTSGYENVTELKLLEGIVDVYLPDFKYMDSTLSARYSRAKDYPSVAKQALSEMVRQQPDVVIDDATGLIQKGVIVRQLLLPGHVNDAKAVLKYLYDTYHDHVYISMMSQFTPIALKDYPEINRTVTRREYERLVDYALEIGITNAFIQEGDVAKDSFIPAFDCEGV” stands “not soluble”.
